Measurements taken from patent US7183110B2, “Antibody immunoreactive with a 5-enolpyruvylshikimate-3-phosphate synthase” (Monsanto Technology LLC, priority 1990, dated 2007).

B1: CP4: Class II EPSPS enzyme from Agrobacterium sp. strain CP4 (SEQ ID NO:3) (protein, listed as Agrobacterium sp.)
chain: MSHGASSRPATARKSSGLSGTVRIPGDKSISHRSFMFGGLASGETRITGLLEGEDVINTGKAMQAMGARIRKEGDTWIIDGVGNGGLLAPEAPLDFGNAATGCRLTMGLVGVYDFDSTFIGDASLTKRPMGRVLNPLREMGVQVKSEDGDRLPVTLRGPKTPTPITYRVPMASAQVKSAVLLAGLNTPGITTVIEPIMTRDHTEKMLQGFGANLTVETDADGVRTIRLEGRGKLTGQVIDVPGDPSSTAFPLVAALLVPGSDVTILNVLMNPTRTGLILTLQEMGADIEVINPRLAGGEDVADLRVRSSTLKGVTVPEDRAPSMIDEYPILAVAAAFAEGATVMNGLEELRVKESDRLSAVANGLKLNGVDCDEGETSLVVRGRPDGKGLGNASGAAVATHLDHRIAMSFLVMGLVSENPVTVDDATMIATSFPEFMDLMAGLGAKIELSDTKAA
B2: LBAA: Class II EPSPS enzyme from Achromobacter sp. strain LBAA (SEQ ID NO:5); wild type gene expressed from pMON17201 (protein, listed as Agrobacterium sp.)
chain: MSHSASPKPATARRSEALTGEIRIPGDKSISHRSFMFGGLASGETRITGLLEGEDVINTGRAMQAMGAKIRKEGDVWIINGVGNGCLLQPEAALDFGNAGTGARLTMGLVGTYDMKTSFIGDASLSKRPMGRVLNPLREMGVQVEAADGDRMPLTLIGPKTANPITYRVPMASAQVKSAVLLAGLNTPGVTTVIEPVMTRDHTEKMLQGFGADLTVETDKDGVRHIRITGQGKLVGQTIDVPGDPSSTAFPLVAALLVEGSDVTIRNVLMNPTRTGLILTLQEMGADIEVLNARLAGGEDVADLRVRASKLKGVVVPPERAPSMIDEYPVLAIAASFAEGETVMDGLDELRVKESDRLAAVARGLEANGVDCTEGEMSLTVRGRPDGKGLGGGTVATHLDHRIAMSFLVMGLAAEKPVTVDDSNMIATSFPEFMDMMPGLGAKIELSIL

Assays:
[1] = tested on: rabbit anti-EPSPS antibody; experiment: Western analysis with rabbit anti-EPSPS antibody to the Petunia EPSPS protein; format: binding; settings: crude extracts 50 μg protein; control Petunia EPSPS 20 ng; Protein A-125I development
Text: The presence of EPSPS activity in these extracts was confirmed by enzyme assay. This surprising result, indicating a lack of similarity between the EPSPS's from these bacterial isolates and those previously studied, coupled with the combination of a low Km for PEP and a high Ki for glyphosate, illustrates that these new EPSPS enzymes are different from known EPSPS enzymes (now referred to as Class I EPSPS).

EPSPS enzymes = experiment: Kinetic characterization of EPSPS enzymes (Km PEP, Ki glyphosate); format: biochemical; settings: for Ki/Km: Ki glyphosate / Km PEP; for Km: Km of the EPSPS enzyme for phosphoenolpyruvate, PEP ranges tested in table footnotes
Protocol: The EPSPS enzymes from these microorganisms were then subjected to further study and analysis.
When the change introduced into the Petunia EPSPS (GA101) was introduced into a number of other EPSPS enzymes, similar changes in kinetics were observed, an elevation of the Ki for glyphosate and of the Km for PEP.
All protein purification procedures were carried out at 3–5° C. EPSPS enzyme assays were performed using either the phosphate release or radioactive HPLC method, as previously described in Padgette et al., 1987, using 1 mM phosphoenol pyruvate (PEP, Boehringer) and 2 mM shikimate-3-phosphate (S3P) substrate concentrations. For radioactive HPLC assays, ^14C-PEP (Amersham) was utilized. S3P was synthesized as previously described in Wibbenmeyer et al. 1988. N-terminal amino acid sequencing was performed by loading samples onto a Polybrene precycled filter in aliquots while drying. Automated Edman degradation chemistry was used to determine the N-terminal protein sequence, using an Applied Biosystems Model 470A gas phase sequencer (Hunkapiller et al., 1983) with an Applied Biosystems 120A PTH analyzer.

CP4 EPSPS = molecular target: T1, CP4 EPSPS (Agrobacterium sp., UniProt Q9R4E4, S2A); experiment: EPSPS activity from native and synthetic CP4 EPSPS genes expressed in E. coli; format: biochemical, Agrobacterium sp. strain CP4
T1 construct: made in house; host or cells: E. coli, PRecA-gene10L vector
T1 sequence (Q9R4E4 whole entry S2A): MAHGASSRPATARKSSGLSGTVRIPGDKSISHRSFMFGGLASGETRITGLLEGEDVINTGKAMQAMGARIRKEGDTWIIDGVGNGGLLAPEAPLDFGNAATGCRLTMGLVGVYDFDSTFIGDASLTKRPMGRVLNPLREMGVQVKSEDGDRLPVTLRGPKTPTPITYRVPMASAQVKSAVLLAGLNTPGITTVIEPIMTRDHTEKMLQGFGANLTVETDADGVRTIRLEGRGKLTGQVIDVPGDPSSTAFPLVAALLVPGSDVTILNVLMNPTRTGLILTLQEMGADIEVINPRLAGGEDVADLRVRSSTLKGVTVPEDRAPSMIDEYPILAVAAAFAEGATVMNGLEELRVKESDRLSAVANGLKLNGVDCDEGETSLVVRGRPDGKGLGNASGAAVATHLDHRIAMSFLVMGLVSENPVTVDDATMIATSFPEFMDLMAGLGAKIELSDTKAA
Text: A synthetic CP4 gene was designed to change as completely as possible those inimical sequences discussed above. In summary, the gene sequence was redesigned to eliminate as much as possible the following sequences or sequence features (while avoiding the introduction of unnecessary restriction sites): stretches of G's and C's of 5 or greater; and A+T rich regions (predominantly) that could function as polyadenylation sites or potential RNA destabilization region The sequence of this gene is shown in FIG. 8 (SEQ ID NO:9). This coding sequence was expressed in E. coli from the RecA promoter and assayed for EPSPS activity and compared with that from the native CP4 EPSPS gene. […] The N-terminus of the coding sequence was mutagenized to place an SphI site at the ATG to permit the construction of the CTP2-CP4 synthetic fusion for chloroplast import. The following primer was used to accomplish this mutagenesis:
The EPSPS gene was isolated originally from Agrobacterium sp. strain CP4 and expresses a highly tolerant enzyme. The original gene contains sequences that could be inimical to high expression of the gene in some plants. […] The high G+C % in the CP4 EPSPS gene could also result in the formation of strong hairpin structures that may affect expression or stability of the RNA. A plant preferred version of the gene was synthesized and used for these vectors. This coding sequence was expressed in E. coli from a PRecA-gene10L vector (Olins et al., 1988) and the EPSPS activity was compared with that from the native CP4 EPSPS gene. […] The N-terminus of the coding sequence was then mutagenized to place an SphI site (GCATGC) at the ATG to permit the construction of the CTP2-CP4 synthetic fusion for chloroplast import. This change had no apparent effect on the in vivo activity of CP4 EPSPS in E. coli as judged by complementation of the aroA mutant. A CTP-CP4 EPSPS fusion was constructed between the Arabidopsis thaliana EPSPS CTP (Klee et al., 1987) and the CP4 EPSPS coding sequences. The Arabidopsis CTP was engineered by site-directed mutagenesis to place a SphI restriction site at the CTP processing site. This mutagenesis replaced the Glu-Lys at this location with Cys-Met. The CTP2-CP4 EPSPS fusion was tested for import into chloroplasts isolated from Lactuca sativa using the methods described previously (della-Cioppa et al., 1986: 1987).

LBAA EPSPS = experiment: appKm and appKi of LBAA EPSPS wild type and G100A variant in E. coli crude lysates; format: biochemical, Achromobacter sp. strain LBAA; settings: range of PEP: 2–40 μM
Text: One difference that may be noted between the deduced amino acid sequences of the CP4 and LBAA EPSPS proteins is at position 100 where an Alanine is found in the case of the CP4 enzyme and a Glycine is found in the case of the LBAA enzyme. In the Class I EPSPS enzymes a Glycine is usually found in the equivalent position, i.e Glycine96 in E. coli and K. pneumoniae and Glycine101 in Petunia. In the case of these three enzymes it has been reported that converting that Glycine to an Alanine results in an elevation of the appKi for glyphosate and a concomitant elevation in the appKm for PEP (Kishore et al., 1986; Kishore and Shah, 1988; Sost and Amrhein, 1990), which, as discussed above, makes the enzyme less efficient especially under conditions of lower PEP concentrations. The Glycine100 of the LBAA EPSPS was converted to an Alanine and both the appKm for PEP and the appKi for glyphosate were determined for the variant. The Glycine100Alanine change was introduced by mutagenesis using the following primer:
and both the wild type and variant genes were expressed in E. coli in a RecA promoter expression vector (pMON17201 and pMON17264, respectively) and the appKm's and appKi's determined in crude lysates. […] However, in contrast to the results in the Class I G-A variants, the appKm(PEP) in the Class II (LBAA) G-A variant is unaltered. […]

Molecule | signal in Western analysis with rabbit anti-EPSPS antibody [1] | Ki/Km (EPSPS enzymes) | Km (EPSPS enzymes) [µM] | appKm for PEP (CP4 EPSPS; expressed in E. coli from a PRecA-gene10L vector) [µM] | Km (CP4 EPSPS; expressed in E. coli from the RecA promoter, read-out: apparent Km for PEP) [µM] | appKm(PEP) (LBAA EPSPS) [µM]
B1 | no positive signal could be detected | 227 | 12 | 11.8 | 11.8 | –
B2 | no positive signal could be detected | ~7.9 | 7.3 to 8 | – | – | 5.3
